Tests used:
[1] = biological target: DC-SIGN Biot-ECD (biotinylated extracellular domain of DC-SIGN) (UniProt Q9NNX6); test: SPR
[2] = biological target: MGL Biot-ECD (biotinylated extracellular domain of MGL) (UniProt Q8IUN9); test: SPR
Sequence of UniProt Q8IUN9 (Q8IUN9 61-316): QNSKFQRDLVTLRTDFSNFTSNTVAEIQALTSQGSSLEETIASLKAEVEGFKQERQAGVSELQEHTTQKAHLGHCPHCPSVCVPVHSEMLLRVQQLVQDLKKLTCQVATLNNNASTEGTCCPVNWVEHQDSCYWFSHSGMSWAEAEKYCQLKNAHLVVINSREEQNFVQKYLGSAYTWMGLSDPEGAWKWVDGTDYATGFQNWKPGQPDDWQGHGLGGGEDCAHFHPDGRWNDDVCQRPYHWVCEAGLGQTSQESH

Sequence of UniProt Q9NNX6 (Q9NNX6 59-404): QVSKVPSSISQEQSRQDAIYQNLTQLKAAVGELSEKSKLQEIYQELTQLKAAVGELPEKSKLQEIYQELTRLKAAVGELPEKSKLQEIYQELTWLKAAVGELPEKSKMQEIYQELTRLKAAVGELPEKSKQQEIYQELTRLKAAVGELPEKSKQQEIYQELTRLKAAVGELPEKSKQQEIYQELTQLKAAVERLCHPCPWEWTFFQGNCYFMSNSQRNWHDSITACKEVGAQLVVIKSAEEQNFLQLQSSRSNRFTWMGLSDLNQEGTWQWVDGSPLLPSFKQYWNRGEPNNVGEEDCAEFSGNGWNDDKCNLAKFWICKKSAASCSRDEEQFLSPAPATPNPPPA

Spike Receptor Binding Domain of SARS-CoV-2 fused to the SpyCatcher (RBD-SC) (from UniProt P0DTC2 320-554)
Kd [1]: 0.601 µM | Kd [2]: 0.982 µM
